Laboratory results published in patent US20210085800A1 (IMMUNOGEN, published 2021).

Tests used:
[1] = biological target: T1, folate receptor alpha (FRα) on the surface of KB and T47D cells (UniProt P15328 25-234, limits assumed); experiment: cell-based or functional assay
[2] = biological target: T1, folate receptor alpha (FRα) on the …; experiment: blocking of FRα on KB cells (2 µM) in a cytotoxicity assay
Protocol: The cell lines were cultured in culture medium as recommended by the cell supplier (ATCC or DSMZ). To each well of a flat bottom 96-well plate was added 1,000-2,000 cells in 100 μL of the culture medium. Conjugates were diluted into the culture medium using 3-fold dilution series and 100 μL were added per well. […] Control wells containing cells and the medium but lacking the conjugates, as well as wells containing medium only, were included in each assay plate. Assays were performed in triplicate for each data point. The plates were incubated at 37° C. in a humidified 6% CO₂ incubator for 5 to 6 days. Then the relative number of viable cells in each well was determined using either the Alamar Blue reagent according the manufacturer's protocol (Life Technologies) or the WST-8 based Cell Counting Kit-8 (Dojindo Molecular Technologies, Inc., Rockville, Md.). The apparent surviving fraction of cells in each well was calculated by first correcting for the medium background absorbance, and then dividing each value by the average of the values in the control wells (non-treated cells). The surviving fraction of cells was plotted against conjugate concentration in semi-log plots.

T1 sequence (P15328 25-234 limits assumed, stated change not applied): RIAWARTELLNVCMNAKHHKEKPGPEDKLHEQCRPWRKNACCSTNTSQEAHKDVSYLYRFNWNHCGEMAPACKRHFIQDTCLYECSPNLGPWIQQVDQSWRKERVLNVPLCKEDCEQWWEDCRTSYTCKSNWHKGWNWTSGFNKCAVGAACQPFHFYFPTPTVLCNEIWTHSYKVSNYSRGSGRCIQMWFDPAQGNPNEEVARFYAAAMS

Row | Binder | fold loss of cytotoxicity when FRα is blocked by unconjugated huMOV19 [1] | binding result [2]
1 | huMOV19-C442-D5 (antibody, IgG1, V domains shown, compound D5 linked through its maleimide to the thiol of the engineered Cys 442 (EU/OU numbering); average 2 mol D5/mol antibody) VH: QVQLVQSGAEVVKPGASVKISCKASGYTFTGYFMNWVKQSPGQSLEWIGRIHPYDGDTFYNQKFQGKATLTVDKSSNTAHMELLSLTSEDFAVYYCTRYDGSRAMDYWGQGTTVTVSS VL: DIVLTQSPLSLAVSLGQPAIISCKASQSVSFAGTSLMHWYHQKPGQQPRLLIYRASNLEAGVPDRFSGSGSKTDFTLTISPVEAEDAATYYCQQSREYPYTFGGGTKLEIKR | 100 fold | –
2 | huMOV19 antibody (unconjugated) (antibody, human IgG1, V domains shown, Human IgG1; also called humanized MOV19 antibody; M9346A; copies: 2 + 2) VH: QVQLVQSGAEVVKPGASVKISCKASGYTFTGYFMNWVKQSPGQSLEWIGRIHPYDGDTFYNQKFQGKATLTVDKSSNTAHMELLSLTSEDFAVYYCTRYDGSRAMDYWGQGTTVTVSS VL: DIVLTQSPLSLAVSLGQPAIISCKASQSVSFAGTSLMHWYHQKPGQQPRLLIYRASNLEAGVPDRFSGSGSKTDFTLTISPVEAEDAATYYCQQSREYPYTFGGGTKLEIKR | – | binds
3 | huMOV19-C442-D4 (antibody, IgG1, V domains shown, compound D4 linked through its maleimide to the thiol of the engineered Cys 442 (EU/OU numbering); average 2 mol D4/mol antibody) VH: QVQLVQSGAEVVKPGASVKISCKASGYTFTGYFMNWVKQSPGQSLEWIGRIHPYDGDTFYNQKFQGKATLTVDKSSNTAHMELLSLTSEDFAVYYCTRYDGSRAMDYWGQGTTVTVSS VL: DIVLTQSPLSLAVSLGQPAIISCKASQSVSFAGTSLMHWYHQKPGQQPRLLIYRASNLEAGVPDRFSGSGSKTDFTLTISPVEAEDAATYYCQQSREYPYTFGGGTKLEIKR | 100 fold | –
4 | huMOV19-sulfo-SPDB-D1 (antibody, V domains shown, compound D1 linked through a sulfo-SPDB linker to lysine side chain amino groups (positions and chain not stated)) VH: QVQLVQSGAEVVKPGASVKISCKASGYTFTGYFMNWVKQSPGQSLEWIGRIHPYDGDTFYNQKFQGKATLTVDKSSNTAHMELLSLTSEDFAVYYCTRYDGSRAMDYWGQGTTVTVSS VL: DIVLTQSPLSLAVSLGQPAIISCKASQSVSFAGTSLMHWYHQKPGQQPRLLIYRASNLEAGVPDRFSGSGSKTDFTLTISPVEAEDAATYYCQQSREYPYTFGGGTKLEIKR | 100 fold | –
5 | huMOV19-D2 (antibody, V domains shown, compound D2 linked to lysine residues (positions and chain not stated)) VH: QVQLVQSGAEVVKPGASVKISCKASGYTFTGYFMNWVKQSPGQSLEWIGRIHPYDGDTFYNQKFQGKATLTVDKSSNTAHMELLSLTSEDFAVYYCTRYDGSRAMDYWGQGTTVTVSS VL: DIVLTQSPLSLAVSLGQPAIISCKASQSVSFAGTSLMHWYHQKPGQQPRLLIYRASNLEAGVPDRFSGSGSKTDFTLTISPVEAEDAATYYCQQSREYPYTFGGGTKLEIKR | 100 fold | –
